Here are results for 58 variants from the FLAb antibody collection (doi:10.7554/elife.23156).

B1: scFv; the commonest letter at each place (parent)
chain 1: EVKLDETGGGLVQPGRPMKLSCVASGFTFSDYWMNWVRQSPEKGLEWVAQIRNKPYNYETYYSDSVKGRFTISRDDSKSSVYLQMNNLRVEDMGIYYCTGSYYGMDYWGQGTSVTVS
chain 2: DVVMTQTPLSLPVSLGDQASISCRSSQSLVHSNGNTYLRWYLQKPGQSPKVLIYKVSNRFSGVPDRFSGSGSGTDFTLKISRVEAEDLGVYFCSQSTHVPWTFGGGTKLEIK

Where only a bound is given, the exact number is not on record here.

The variants in the data set “fluorescein” derive from B1. Briefly: Kd (Tite-Seq). The following applies: with fluorescein; format: scFv 4-4-20, heavy + light.
Variants of B1 are the subject of data set [1]. Briefly: yeast surface expression (ratio to wild type); higher = more expressed. The following applies: format: scFv 4-4-20, heavy + light.

For orientation: Kd means a measure of binding affinity in units of concentration. As for chain 1 Y102W Y107G, the Kd with fluorescein was at least 10000 nM. The yeast surface expression in data set [1] came to 0.493.

Consider chain 1 Y102W Y107S, for which the Kd with fluorescein was 94.4 nM. In addition, the yeast surface expression in data set [1] stood at 0.557.

On to chain 1 Y102W Y107F, for which, in the data set with fluorescein, the Kd is 1.58 nM. In addition, in data set [1], the yeast surface expression came out at 0.61.

Consider chain 1 Y102W Y107W, for which the Kd in the data set with fluorescein came out at 1.58 nM. Besides, the yeast surface expression in data set [1] turned out to be 0.797.

chain 1 Y102L W108Q: in the data set with fluorescein, the Kd is at least 10000 nM. For the same variant, the yeast surface expression in data set [1] stood at 0.328.

Consider chain 1 Y102V W108A, for which the Kd with fluorescein was 21 nM. Also, the yeast surface expression in data set [1] is 0.315.

For chain 1 Y102V W108Y, in the data set with fluorescein, the Kd was determined as 0.504 nM. The yeast surface expression in data set [1] stood at 0.855.

In the case of chain 1 Y102V W108G, the Kd in the data set with fluorescein was at least 10000 nM. The yeast surface expression in data set [1] is 0.298.

Take chain 1 Y102G Y107F W108K: the equilibrium dissociation constant (Kd) with fluorescein was at least 10000 nM. Also, the yeast surface expression in data set [1] is 0.71.

On to chain 1 Y103E M105I, for which the Kd in the data set with fluorescein was at least 10000 nM. Besides, the yeast surface expression in data set [1] came out at 0.9.

For the variant chain 1 Y103D Y107R, in the data set with fluorescein, the equilibrium dissociation constant (Kd) was at least 10000 nM. For the same variant, in data set [1], the yeast surface expression was found to be 0.955.

For the variant chain 1 Y103D Y107N, in the data set with fluorescein, the Kd is 1260 nM. Further, the yeast surface expression in data set [1] stood at 1.12.

As for chain 1 Y103D Y107C, the equilibrium dissociation constant (Kd) with fluorescein was at least 10000 nM. Besides, the yeast surface expression in data set [1] is 0.646.

In the case of chain 1 Y102T D106P, the equilibrium dissociation constant (Kd) in the data set with fluorescein was at least 10000 nM. The yeast surface expression in data set [1] was determined as 0.351.

chain 1 Y102V Y107F: the Kd in the data set with fluorescein was found to be 2.26 nM. Further, the yeast surface expression in data set [1] worked out at 0.877.

For chain 1 Y102V Y107D, the equilibrium dissociation constant (Kd) in the data set with fluorescein is at least 10000 nM. Besides, the yeast surface expression in data set [1] was found to be 0.452.

Take chain 1 Y102G M105C: in the data set with fluorescein, the Kd was at least 10000 nM. Also, the yeast surface expression in data set [1] was 0.828.

In the case of chain 1 Y102G M105V, in the data set with fluorescein, the dissociation constant (Kd) is at least 10000 nM. For the same variant, the yeast surface expression in data set [1] stood at 1.02.

For the variant chain 1 Y102M Y107S, in the data set with fluorescein, the equilibrium dissociation constant (Kd) is at least 10000 nM. Also, the yeast surface expression in data set [1] was 0.685.

On to chain 1 Y102K W108S, for which the Kd with fluorescein was at least 10000 nM. For the same variant, the yeast surface expression in data set [1] turned out to be 0.534.

Consider chain 1 Y102P M105S, for which, in the data set with fluorescein, the Kd is at least 10000 nM. Further, in data set [1], the yeast surface expression is 0.416.

On to chain 1 Y102P M105K, for which, in the data set with fluorescein, the Kd was at least 10000 nM. Further, the yeast surface expression in data set [1] was found to be 0.473.

chain 1 Y102F Y103I: the dissociation constant (Kd) with fluorescein was found to be 72.9 nM. For the same variant, in data set [1], the yeast surface expression came to 0.793.

Turning to chain 1 Y103C D106L, in the data set with fluorescein, the dissociation constant (Kd) was at least 10000 nM. The yeast surface expression in data set [1] is 0.589.

As to chain 1 Y103A W108D, the Kd with fluorescein was at least 10000 nM. Moreover, the yeast surface expression in data set [1] was 0.576.

Regarding chain 1 Y103A W108E, the Kd with fluorescein was at least 10000 nM. Besides, the yeast surface expression in data set [1] was 0.603.

Consider chain 1 Y102W Y103W, for which the Kd in the data set with fluorescein is 2880 nM. In addition, the yeast surface expression in data set [1] worked out at 0.645.

On to chain 1 Y102K Y103M, for which the Kd in the data set with fluorescein came out at 1140 nM. Further, in data set [1], the yeast surface expression turned out to be 1.08.

Consider chain 1 Y102K Y103D, for which the equilibrium dissociation constant (Kd) with fluorescein is 13.2 nM. Besides, the yeast surface expression in data set [1] amounted to 1.24.

On to chain 1 Y103A Y107T, for which the dissociation constant (Kd) with fluorescein stood at 110 nM. In data set [1], the yeast surface expression was determined as 1.13.

Regarding chain 1 Y102Q Y107H, the Kd with fluorescein was determined as 2010 nM. Besides, in data set [1], the yeast surface expression was determined as 1.01.

With chain 1 Y102Q Y107C, the Kd with fluorescein is at least 10000 nM. In addition, the yeast surface expression in data set [1] was 0.353.

In the case of chain 1 Y102H G104F, in the data set with fluorescein, the dissociation constant (Kd) was at least 10000 nM. For the same variant, the yeast surface expression in data set [1] amounted to 0.598.

With chain 1 Y102I Y103E G109K, in the data set with fluorescein, the Kd is at least 10000 nM. In data set [1], the yeast surface expression is 0.364.

Consider chain 1 Y103H G109M, for which the dissociation constant Kd with fluorescein was at least 10000 nM. Moreover, the yeast surface expression in data set [1] came to 0.304.

On to chain 1 Y102P G104S M105H, for which the dissociation constant (Kd) with fluorescein is at least 10000 nM. Moreover, the yeast surface expression in data set [1] is 0.325.

On to chain 1 Y103F, for which the dissociation constant Kd in the data set with fluorescein was 0.763 nM. In data set [1], the yeast surface expression amounted to 1.06.

As for chain 1 Y103E, the dissociation constant (Kd) with fluorescein is 16.6 nM. Moreover, the yeast surface expression in data set [1] worked out at 0.857.

As for chain 1 Y103I, in the data set with fluorescein, the equilibrium dissociation constant (Kd) is 18 nM. Further, the yeast surface expression in data set [1] stood at 0.964.

For the variant chain 1 Y103G, the Kd with fluorescein came out at 17.1 nM. In data set [1], the yeast surface expression came to 1.14.

For the variant chain 1 Y103C, the equilibrium dissociation constant (Kd) with fluorescein turned out to be 4.93 nM. Moreover, in data set [1], the yeast surface expression worked out at 0.775.

Take chain 1 Y103A: the Kd with fluorescein came out at 15 nM. For the same variant, in data set [1], the yeast surface expression was found to be 0.932.

With chain 1 Y103D, the Kd in the data set with fluorescein amounted to 44.5 nM. Moreover, the yeast surface expression in data set [1] turned out to be 1.21.

Regarding chain 1 Y103H, in the data set with fluorescein, the Kd amounted to 13.2 nM. Further, the yeast surface expression in data set [1] stood at 1.1.

With chain 1 Y102Q W108Q, the Kd in the data set with fluorescein is at least 10000 nM. Also, the yeast surface expression in data set [1] is 0.508.

In the case of chain 1 Y102R, the equilibrium dissociation constant (Kd) with fluorescein is 25.2 nM. In data set [1], the yeast surface expression was 1.06.

Take chain 1 Y102L: the Kd with fluorescein came out at 610 nM. For the same variant, in data set [1], the yeast surface expression is 0.974.

As for chain 1 Y102S, in the data set with fluorescein, the Kd was found to be 0.869 nM. In addition, the yeast surface expression in data set [1] turned out to be 1.14.

Regarding chain 1 Y102K, the Kd in the data set with fluorescein amounted to 21 nM. Moreover, in data set [1], the yeast surface expression stood at 0.81.

For chain 1 Y102P, the Kd with fluorescein is at least 10000 nM. In addition, the yeast surface expression in data set [1] worked out at 0.77.

For chain 1 Y102T, the Kd with fluorescein was found to be 8.94 nM. Besides, the yeast surface expression in data set [1] was 0.932.

For the variant chain 1 Y102Q, the Kd with fluorescein was determined as 33.5 nM. Further, in data set [1], the yeast surface expression was determined as 1.12.

With chain 1 Y102G, the Kd in the data set with fluorescein is 1910 nM. Further, the yeast surface expression in data set [1] is 0.965.

With chain 1 Y102H, in the data set with fluorescein, the dissociation constant (Kd) was 4 nM. Besides, the yeast surface expression in data set [1] was found to be 1.17.

As for chain 1 Y102N, the Kd in the data set with fluorescein amounted to 17.5 nM. Also, the yeast surface expression in data set [1] is 1.04.

On to chain 1 Y102I, for which, in the data set with fluorescein, the Kd was found to be 2.79 nM. The yeast surface expression in data set [1] was found to be 1.16.

With chain 1 Y102V, in the data set with fluorescein, the Kd stood at 10.7 nM. Also, in data set [1], the yeast surface expression turned out to be 0.936.

chain 1 Y102M: in the data set with fluorescein, the equilibrium dissociation constant (Kd) amounted to 4600 nM. Besides, in data set [1], the yeast surface expression was found to be 0.944.
